The source of these data is US20130184160.

Holding throughout (assay): filter
Data set [1] deals with Alpha-1 acid glycoprotein (UniProt P02763). The conditions noted are these: T positions from B-TTP (quinoline-8-boronic acid linked at 5-position of dU via triazole), outside primer; specificity control.
Another data set has as its target T1, Fetuin (UniProt P12763).
T1 sequence: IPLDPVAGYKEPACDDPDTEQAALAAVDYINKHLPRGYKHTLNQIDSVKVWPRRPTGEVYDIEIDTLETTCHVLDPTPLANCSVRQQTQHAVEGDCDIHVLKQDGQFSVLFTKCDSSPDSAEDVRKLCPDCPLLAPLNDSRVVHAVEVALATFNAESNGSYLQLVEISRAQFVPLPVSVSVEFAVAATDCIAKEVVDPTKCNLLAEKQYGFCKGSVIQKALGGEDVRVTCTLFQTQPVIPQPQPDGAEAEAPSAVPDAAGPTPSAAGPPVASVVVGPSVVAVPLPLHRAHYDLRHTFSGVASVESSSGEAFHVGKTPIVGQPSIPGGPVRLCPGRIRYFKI
The conditions noted are these: T positions from B-TTP (quinoline-8-boronic acid linked at 5-position of dU via triazole), outside primer; specificity control.

In data set [2] the test system is Fibrinogen (glycosylated, untreated), P02671-2+P02675+P02679. The conditions noted are these: T positions from B-TTP; average Kd of pool after round 13.
Fibrinogen (glycosylated, untreated), P02671-2+P02675+P02679, sequence (P02671 other isoform, or with tags, fused parts or gaps, chain 1 of 3): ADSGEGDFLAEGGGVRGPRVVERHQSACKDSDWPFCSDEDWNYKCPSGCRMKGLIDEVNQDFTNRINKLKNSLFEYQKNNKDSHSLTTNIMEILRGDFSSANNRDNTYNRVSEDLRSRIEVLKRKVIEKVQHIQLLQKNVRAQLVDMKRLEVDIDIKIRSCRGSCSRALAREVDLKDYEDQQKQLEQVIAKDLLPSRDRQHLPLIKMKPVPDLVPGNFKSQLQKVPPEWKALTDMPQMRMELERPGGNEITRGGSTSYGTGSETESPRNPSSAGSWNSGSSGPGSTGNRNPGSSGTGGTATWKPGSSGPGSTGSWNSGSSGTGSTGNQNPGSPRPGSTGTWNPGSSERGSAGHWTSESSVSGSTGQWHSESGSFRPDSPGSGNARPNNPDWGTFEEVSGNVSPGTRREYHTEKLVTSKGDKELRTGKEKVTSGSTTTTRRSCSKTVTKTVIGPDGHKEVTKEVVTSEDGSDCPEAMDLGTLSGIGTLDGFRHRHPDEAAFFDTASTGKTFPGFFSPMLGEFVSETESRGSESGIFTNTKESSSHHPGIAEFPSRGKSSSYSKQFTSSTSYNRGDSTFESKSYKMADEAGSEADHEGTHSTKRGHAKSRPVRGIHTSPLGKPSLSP
Fibrinogen (glycosylated, untreated), P02671-2+P02675+P02679, sequence (P02675 31-491, chain 2 of 3): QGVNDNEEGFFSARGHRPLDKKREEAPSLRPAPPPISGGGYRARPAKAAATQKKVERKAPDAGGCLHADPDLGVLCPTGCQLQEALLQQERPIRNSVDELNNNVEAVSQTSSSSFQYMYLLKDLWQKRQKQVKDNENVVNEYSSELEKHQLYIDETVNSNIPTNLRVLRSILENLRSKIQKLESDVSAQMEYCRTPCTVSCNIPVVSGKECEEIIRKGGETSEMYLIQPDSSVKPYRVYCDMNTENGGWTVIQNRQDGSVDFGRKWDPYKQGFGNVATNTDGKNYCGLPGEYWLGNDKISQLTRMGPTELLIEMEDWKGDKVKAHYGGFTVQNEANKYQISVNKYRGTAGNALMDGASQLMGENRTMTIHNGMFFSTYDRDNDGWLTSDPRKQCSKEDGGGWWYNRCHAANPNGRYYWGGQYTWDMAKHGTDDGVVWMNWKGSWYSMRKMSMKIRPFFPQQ
Fibrinogen (glycosylated, untreated), P02671-2+P02675+P02679, sequence (P02679 27-453, chain 3 of 3): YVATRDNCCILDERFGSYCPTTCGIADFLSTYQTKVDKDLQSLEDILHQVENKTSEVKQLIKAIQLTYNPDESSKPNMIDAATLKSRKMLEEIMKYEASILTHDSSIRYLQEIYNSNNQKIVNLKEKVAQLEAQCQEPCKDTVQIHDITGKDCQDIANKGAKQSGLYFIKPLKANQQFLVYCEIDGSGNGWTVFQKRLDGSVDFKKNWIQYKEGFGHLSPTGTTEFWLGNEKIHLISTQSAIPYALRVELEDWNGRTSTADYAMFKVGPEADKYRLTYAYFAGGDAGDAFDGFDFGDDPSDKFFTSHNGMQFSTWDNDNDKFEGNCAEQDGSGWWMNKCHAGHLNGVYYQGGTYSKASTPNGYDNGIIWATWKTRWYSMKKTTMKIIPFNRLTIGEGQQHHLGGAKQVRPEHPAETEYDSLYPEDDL

Alpha-1 acid glycoprotein, sequence (P02763 19-201): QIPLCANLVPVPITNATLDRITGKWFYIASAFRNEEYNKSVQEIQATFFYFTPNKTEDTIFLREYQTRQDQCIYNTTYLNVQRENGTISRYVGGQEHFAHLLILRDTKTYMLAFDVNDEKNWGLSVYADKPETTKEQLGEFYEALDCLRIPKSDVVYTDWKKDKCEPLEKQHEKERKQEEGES

For the sequence “CCTTCGTTGTCTGCCTTCGTAGCGGATCGAATTACGCGTTAACGGCAACCGATAACGGGACCGATTGCACACCCTTCAGAATTCGCACCA [85A B-TTP (114H)]”, the Kd in data set [1] stood at 700 nM; in the data set with Fetuin, 2200 nM.
Take “CCTTCGTTGTCTGCCTTCGTNNNNNNNNNNNNNNNNNNNNNNNNNNNNNNNNNNNNNNNNNNNNNNNNNNACCCTTCAGAATTCGCACCA [Round 13 fibrinogen pool]”: the Kd in data set [2] was found to be 5000 nM.

Broadly, the Kd is a measure of binding affinity in units of concentration. A higher Kd goes with weaker binding.
